In test [1] the target is VSD-I of human NaV1.4 (residues L114–S246) (human) (UniProt P35499). Briefly: NMR titration.
The target of test [2] is NaV1.4 p.R222G channel (UniProt P35499).
Test [3] has as its target NaV1.4 p.R222W channel (UniProt P35499).

For orientation: Kd means a measure of binding affinity in units of concentration. Higher therefore signals weaker binding.

“Hm-3 toxin from the crab spider Heriaeus melloteei (peptide)”: the Kd in test [1] stood at 6.2 µM. The percent of guanidinium-enhanced IGP suppressed by 10 μM Hm-3 at −80 mV, oocytes in test [2] worked out at 64%; in test [3], 67%.

The values are drawn from article PMC5924911.
